Measurements reported in patent US10266565B2, “Peptide mimetic ligands of polo-like kinase 1 polo box domain and methods of use” (The United States of America, as represented by the …, priority 2011, dated 2019).
“Also recorded” adds a separate entry of the source. Where a SMILES comes first, the peptide text is derived from it. Where no end group is shown, it is not given here. [ ]: non-standard residue; d: D form. The star is where a group is joined. His(π-(CH2)8Ph) = N[C@@H](Cc1cncn1CCCCCCCCc1ccccc1)C(=O)O; Abu(3R-Me,4-PO3H2) = C[C@@H](CP(=O)(O)O)[C@H](N)C(=O)O; CH3O(CH2CH2O)7C2H4CO = COCCOCCOCCOCCOCCOCCOCCOCCC(=O)*; pT = C[C@@H](OP(=O)(O)O)[C@H](N)C(=O)O; PEG = not defined here

Legend:
Plk2 = target: T1, Plk2 (Mus musculus, UniProt P53351, K108M); experiment: Peptide pull-down assay with bead-immobilized peptides, Plk2; type: binding
T1 construct: expressed in transfected cells
Description: After incubating the cell lysates prepared in TBSN buffer {20 mM Tris-Cl (pH8.0), 150 mM NaCl, 0.5% Np-40, 5 mM EGTA, 1.5 mM EDTA, 20 mM p-nitrophenylphosphate and protease inhibitor cocktail (Roche, Nutley, N.J.)} with the bead-immobilized ligands for 2 h at 4° C., the ligand-associating proteins were precipitated, washed, boiled in sodium dodecyl sulfate (SDS) sample buffer, separated by 8% SDS-polyacrylamide gel electrophoresis (PAGE), and then subjected to immunoblotting analysis with anti-Flag antibody and the enhanced chemilunimescence (ECL) detection system (Pierce). The same membrane was also stained with Coomassies (CBB). Signal intensities were quantified using Image J program.
To investigate the binding specificity of p-T78 peptides to various Plks, Flag-Plk1 (K82M), Flag-Plk2(K108M)3 or Flag-Plk3(K52R) (a gift of Wei Dai, New York University School of Medicine, NY) construct was first transfected into HeLa cells. Cellular lysates were prepared as above, mixed, and then incubated in TBSN buffer with the immobilized peptides indicated.

HeLa cells [1] = experiment: Direct treatment of cultured HeLa cells (mitotic arrest, apoptotic cell death, Plk1 localization); type: cell-based; conditions: 200 μM
Plk1 = target: T2, Plk1 (Homo sapiens, UniProt P53350); experiment: Peptide pull-down assay with bead-immobilized peptides, Plk1; type: binding; conditions: for Plk1 binding / precipitation in pull-down, in words: mitotic cell lysates
T2 construct: we used total lysates prepared from mitotic HeLa cells; endogenous in cells; host or cells: mitotic (nocodazole-arrested) HeLa cells
Description: For Plk1 pull-down assays with immobilized peptides, we used total lysates prepared from mitotic HeLa cells. […] Cells treated with 200 ng/ml of nocodazole for 16 h were lysed in TBSN buffer {20 mM Tris-Cl (pH8.0), 150 mM NaCl, 0.5% NP-40, 5 mM EGTA, 1.5 mM EDTA, 0.5 mM Na3VO4, 20 mM p-nitrophenyl phosphate, and protease inhibitor cocktail (Roche, Nutley, N.J.)}, and then clarified by centrifugation at 15,000×g for 20 min at 4° C. The resulting lysates were incubated with bead-immobilized peptides (40 μM per binding) for 2 h, precipitated, washed, and then boiled in sodium dodecyl sulfate (SDS) sample buffer to elute the associated proteins. Samples were separated by 10% SDS-polyacrylamide gel electrophoresis (PAGE), and then either stained with silver or transferred to PVDF membrane for immunoblotting analysis with anti-Plk1 antibody using the enhanced chemiluminescence (ECL) detection system (Pierce). […]

Plk1 PBD = Plk1 PBD (Homo sapiens, UniProt P53350); experiment: Isothermal titration calorimetry with recombinant Plk1 PBD; type: binding
[2] = target: Plk1 PBD-p-Cdc25C interaction (Homo sapiens, UniProt P53350); experiment: Competition of the PBD-p-Cdc25C interaction in mitotic HeLa lysates; type: binding; conditions: GST-PBD
Description: For p-Cdc25C pull-down assays, either bead-bound GST-PBD or the corresponding GST-PBD(H538A K540M) mutant was incubated with mitotic HeLa lysates in TBSN buffer supplemented with 2 mM DTT. To test the ability of the indicated peptides to compete the PBD-p-Cdc25C interaction, lysates were pre-incubated with GST-PBD for 1.5 h prior to the addition of the indicated peptides. Lysates were then incubated for additional 1.5 h, washed in the binding buffer, and then analyzed. For competition of the interaction between p-Cdc25C and endogenous Plk1, mitotic lysates were prepared in TBSN and incubated with the indicated peptides for 1 h before subjecting to immunoprecipitation with anti-Plk1 antibody.

Plk2 PBD = target: T3, Plk2 PBD (Homo sapiens, UniProt Q9NYY3); experiment: Isothermal titration calorimetry with recombinant Plk2 PBD; conditions: titrated into Plk2 PBD
T3 sequence (Q9NYY3 373-685): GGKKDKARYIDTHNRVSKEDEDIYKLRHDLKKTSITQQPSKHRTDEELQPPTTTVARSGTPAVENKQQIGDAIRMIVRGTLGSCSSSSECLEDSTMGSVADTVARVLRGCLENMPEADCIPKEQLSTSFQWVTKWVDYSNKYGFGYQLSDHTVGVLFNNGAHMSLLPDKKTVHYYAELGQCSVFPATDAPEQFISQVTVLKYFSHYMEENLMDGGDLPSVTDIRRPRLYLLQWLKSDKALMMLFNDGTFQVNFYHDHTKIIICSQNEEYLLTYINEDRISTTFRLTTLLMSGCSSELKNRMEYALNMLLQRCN

HeLa cells [3] = experiment: Microinjection of peptides into HeLa cells; type: cell-based; conditions: for Plk1 localization at centrosomes and kinetochores: microinjection; for mitotic arrest / cell cycle effect, in words: peptide introduced into the cells
Description: HeLa cells were cultured as subconfluent monolayers under the conditions recommended by American Type Culture Collection (Manassas, Va.). […] No mitotic exit was observed during the period of 10 min BMI-1026 treatment. For microinjection experiments with the Pmab-containing mimetic peptides, cells were arrested for 16 h with 2.5 mM thymidine (Sigma) and released into fresh medium. Two hours after release from the S phase block, the indicated peptides (2.5 mM stock in PBS) were microinjected into the cells using Eppendorf® Transjector 5246 (Eppendorf®, Westbury, N.Y.) at the 150 hPa pressure level and the 0.5 second injection time. All the cells in a single grid were injected and then further incubated to monitor cell cycle progression. For microinjection experiments with the F2Pmab-containing mimetic peptides, cells were arrested with 2.5 mM thymidine for 16 h twice with a 9 h release interval, and then released into fresh medium. Seven hours after release from the G1/S phase block, the indicated peptides (4 mM stock in PBS) were microinjected similarly as above. Where indicated, peptides containing the final concentration of 30 ng/μl of pEGFP-C1 vector (Clontech®, Mountain View, Calif.) were used to visualize the injected cells.
Four hours after microinjection, cells were fixed and subjected to immunostaining analyses as described below.
Similar methods were used for the experiments shown in FIG. 16 using the peptides indicated. HeLa cells were arrested at the G1/S boundary by double thymidine treatment and released into fresh medium. […] Co-injected EGFP plasmid provided a convenient marker to identify the microinjected cells.
Indirect immunostaining was carried out as described previously (5) using anti-Plk1 antibody (Santa Cruz Biotechnologies, Santa Cruz, Calif.) and anti-CREST antiserum (Cortex Biochem, San Leandro, Calif.). All the appropriate secondary antibodies were purchased from Jackson ImmunoResearch Laboratories, Inc. (West Grove, Pa.). Biotinylated F2Pmab-positive cells were detected by co-staining with FITC-conjugated Streptavidin (Invitrogen®, Carlsbad, Calif.). Chromosomes were visualized with 4′,6-diamidino-2-phenylindole (DAPI) (Sigma). Digital images were collected with a Zeiss LSM510 confocal microscope. For the quantification of the fluorescence signal intensities, images of unsaturated fluorescence signals were acquired with the same laser intensity at 512×512 pixels and 12-bit resolution. Fluorescence intensities for localized signals were determined after subtracting the background signal intensities using Zeiss AIM confocal software.

[4] = target: Plk1 (endogenous, HeLa cells) (UniProt P53350); experiment: pull-down with bead-immobilized peptide, mitotic HeLa lysate
[5] = target: Plk1 PBD (construct and assay format not stated at these places) (UniProt P53350); experiment: assay not given
Flag-Plk3 (K52R) = target: T4, Flag-Plk3 (K52R) (UniProt Q9H4B4 40-646, K52R); experiment: pull-down with bead-immobilized peptide, mixed Flag-Plk1/2/3 lysates (293T)
T4 construct: In lysates of transfected cells
T4 sequence (Q9H4B4 40-646 K91R): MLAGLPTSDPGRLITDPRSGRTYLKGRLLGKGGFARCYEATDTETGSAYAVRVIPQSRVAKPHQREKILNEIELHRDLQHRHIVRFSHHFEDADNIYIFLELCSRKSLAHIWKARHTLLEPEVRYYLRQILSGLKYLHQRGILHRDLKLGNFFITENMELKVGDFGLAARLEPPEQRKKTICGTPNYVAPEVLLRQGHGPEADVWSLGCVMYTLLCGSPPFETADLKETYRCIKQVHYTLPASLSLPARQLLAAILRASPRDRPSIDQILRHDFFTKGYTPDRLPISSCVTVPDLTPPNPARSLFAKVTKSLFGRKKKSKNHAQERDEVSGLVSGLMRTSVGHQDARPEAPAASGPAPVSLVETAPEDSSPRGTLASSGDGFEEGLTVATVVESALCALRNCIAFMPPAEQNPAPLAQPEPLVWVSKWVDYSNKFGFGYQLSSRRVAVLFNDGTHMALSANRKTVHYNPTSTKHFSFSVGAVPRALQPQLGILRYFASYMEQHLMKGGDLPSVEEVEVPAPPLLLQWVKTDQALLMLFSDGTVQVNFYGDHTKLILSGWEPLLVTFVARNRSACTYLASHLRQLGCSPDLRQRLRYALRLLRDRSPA

Chain of Plk1 PBD-p-Cdc25C interaction (P53350 326-603 limits assumed): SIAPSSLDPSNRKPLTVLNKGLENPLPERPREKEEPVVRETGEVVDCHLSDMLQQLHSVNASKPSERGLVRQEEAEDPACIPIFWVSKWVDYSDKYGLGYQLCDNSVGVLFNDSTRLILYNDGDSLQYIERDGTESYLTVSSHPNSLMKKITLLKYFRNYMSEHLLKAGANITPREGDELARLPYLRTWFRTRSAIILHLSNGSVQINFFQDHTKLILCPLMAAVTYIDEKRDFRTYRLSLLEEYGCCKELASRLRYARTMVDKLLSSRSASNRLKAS
Chain of Plk1 PBD (P53350 326-603): as the sequence (P53350 326-603 limits assumed) above
T2 sequence (P53350 2-603): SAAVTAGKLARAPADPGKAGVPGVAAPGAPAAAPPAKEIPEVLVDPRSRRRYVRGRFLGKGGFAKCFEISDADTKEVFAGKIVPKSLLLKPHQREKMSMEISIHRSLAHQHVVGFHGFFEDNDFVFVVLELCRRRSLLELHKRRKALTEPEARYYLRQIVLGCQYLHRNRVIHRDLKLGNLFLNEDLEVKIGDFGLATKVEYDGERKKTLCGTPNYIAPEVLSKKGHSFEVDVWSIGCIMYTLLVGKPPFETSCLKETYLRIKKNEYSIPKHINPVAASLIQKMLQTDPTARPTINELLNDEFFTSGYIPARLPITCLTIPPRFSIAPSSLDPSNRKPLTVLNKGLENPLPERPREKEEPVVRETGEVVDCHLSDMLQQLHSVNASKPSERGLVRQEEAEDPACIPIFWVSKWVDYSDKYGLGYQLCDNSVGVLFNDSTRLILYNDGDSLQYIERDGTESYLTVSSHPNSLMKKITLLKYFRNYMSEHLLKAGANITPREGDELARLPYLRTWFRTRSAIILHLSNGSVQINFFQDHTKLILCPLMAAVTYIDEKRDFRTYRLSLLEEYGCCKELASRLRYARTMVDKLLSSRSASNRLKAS
T1 sequence (P53351 whole entry K108M): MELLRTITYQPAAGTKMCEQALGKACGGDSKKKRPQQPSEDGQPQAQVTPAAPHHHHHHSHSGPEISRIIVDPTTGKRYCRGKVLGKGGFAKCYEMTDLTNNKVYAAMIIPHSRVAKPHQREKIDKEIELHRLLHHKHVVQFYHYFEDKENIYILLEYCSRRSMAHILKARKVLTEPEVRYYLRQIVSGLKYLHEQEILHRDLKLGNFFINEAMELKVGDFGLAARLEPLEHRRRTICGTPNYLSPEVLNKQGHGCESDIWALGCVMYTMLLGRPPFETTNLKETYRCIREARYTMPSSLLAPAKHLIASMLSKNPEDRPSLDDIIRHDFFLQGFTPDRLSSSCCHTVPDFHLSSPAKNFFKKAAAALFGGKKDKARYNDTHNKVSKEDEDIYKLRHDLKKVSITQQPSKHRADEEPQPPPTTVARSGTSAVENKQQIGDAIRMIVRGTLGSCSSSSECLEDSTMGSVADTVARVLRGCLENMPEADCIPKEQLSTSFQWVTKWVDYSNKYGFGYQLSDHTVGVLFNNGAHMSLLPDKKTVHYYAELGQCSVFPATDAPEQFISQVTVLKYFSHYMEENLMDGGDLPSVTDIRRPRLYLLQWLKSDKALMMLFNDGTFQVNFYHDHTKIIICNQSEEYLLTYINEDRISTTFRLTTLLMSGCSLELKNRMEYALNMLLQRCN
Chain of Plk1 PBD (construct and assay format not stated at these places) (P53350 326-603 limits assumed): as the sequence (P53350 326-603 limits assumed) above
Chain of Plk1 (endogenous, HeLa cells) (P53350 2-603 limits assumed): as the sequence (P53350 2-603) above

Molecule: CSCC[C@H](N)C(=O)N[C@@H](CCC(N)=O)C(=O)N[C@@H](CO)C(=O)N[C@H](C(=O)N1CCC[C@H]1C(=O)N[C@@H](CC(C)C)C(N)=O)[C@@H](C)OP(=O)(O)O [MQSpTPL, reference compound]
- Plk2 precipitation as efficiency of Plk1 precipitation (Plk2; lysates with similar levels of Plk1, Plk2, Plk3): ~27%

Molecule: COCCOCCOCCOCCOCCOCCOCCOCCC(=O)N1CCC[C@H]1C(=O)N[C@@H](CC(C)C)C(=O)N[C@@H](Cc1cnc[nH]1)C(=O)N[C@@H](C)C(=O)N[C@H](C(N)=O)[C@@H](C)CP(=O)(O)O [PEG-1* (S/A)] ({CH3O(CH2CH2O)7C2H4CO}-PLHA[Abu(3R-Me,4-PO3H2)]-NH2)
- Plk1 delocalization and misaligned chromosomes (HeLa cells [1]): not
- mitotic arrest / apoptotic cell death / cellular response (HeLa cells [1]): not

Molecule: COCCOCCOCCOCCOCCOCCOCCOCCC(=O)N1CCC[C@H]1C(=O)N[C@@H](CC(C)C)C(=O)N[C@@H](Cc1cnc[nH]1)C(=O)N[C@@H](CO)C(=O)N[C@H](C(N)=O)[C@@H](C)CP(=O)(O)O [PEG-1*]
- Plk1 delocalization and misaligned chromosomes (HeLa cells [1]): only mild Plk1 delocalization with a moderate level of misaligned chromosomes
- mitotic arrest / apoptotic cell death / cellular response (HeLa cells [1]): weak but significant level of mitotic arrest

Molecule: COCCOCCOCCOCCOCCOCCOCCOCCC(=O)N1CCC[C@H]1C(=O)N[C@@H](CC(C)C)C(=O)N[C@@H](Cc1cncn1CCCCCCCCc1ccccc1)C(=O)N[C@@H](C)C(=O)N[C@H](C(N)=O)[C@@H](C)CP(=O)(O)O [PEG-4j* (S/A)] ({CH3O(CH2CH2O)7C2H4CO}-PL[His(π-(CH2)8Ph)]A[Abu(3R-Me,4-PO3H2)]-NH2)
- Plk1 delocalization and misaligned chromosomes (HeLa cells [1]): not
- mitotic arrest / apoptotic cell death / cellular response (HeLa cells [1]): did not

Molecule: HSpT: "HSpT lacking both the Pro and Leu residues" (His-Ser-[pT])
- Plk1 binding / precipitation in pull-down, in words (Plk1): did not exhibit any significant level of binding

Molecule: HSpTA: 4-mer p-T78 peptide "HSpTA (SEQ ID NO: 15)" (HS[pT]A)
- binding affinity by calorimetry, in words (Plk1 PBD): much lower affinities
- disruption of the pre-formed PBD-p-Cdc25C complex [2]: disrupted the complex weakly
- Plk1 binding / precipitation in pull-down, in words (Plk1): bound to Plk1 better than SpTAI

Molecule: HSpTAI: "HSpTAI, lacking both Pro and Leu but instead bearing two additional C-terminal residues following the SpT motif" (HS[pT]AI)
- Plk1 binding / precipitation in pull-down, in words (Plk1): bound to Plk1 only weakly

Molecule: LHSpT: "LHSpT (SEQ ID NO: 14) lacking the N-terminal Pro" (LHS[pT])
- binding affinity by calorimetry, in words (Plk1 PBD): much lower affinities
- weaker binding than PLHSpT (Plk1 PBD; assay not given): ~50 fold
- disruption of the pre-formed PBD-p-Cdc25C complex [2]: much less effective than PLHSpT; also recorded: disrupted the complex weakly
- diminished binding affinity to Plk1 relative to PLHSpT (Plk1): ~7 fold
- Plk1 binding / precipitation in pull-down, in words (Plk1): bound to Plk1 better than SpTAI

Molecule: LHSpTAI: "the analogous p-T78 peptide (LHSpTAI (SEQ ID NO: 17))" (LHS[pT]AI)
- binding affinity by calorimetry, in words (Plk1 PBD): slightly higher affinities than the 5-mer peptides
- Plk1 binding / precipitation in pull-down, in words (Plk1): equivalent to that of the former

Molecule: MLHSpT: "a Pro-4 to Met-4 mutant, MLHSpT (SEQ ID NO: 18)" (MLHS[pT])
- Plk1 binding / precipitation in pull-down, in words (Plk1): greatly diminished level of Plk1 PBD binding

Molecule: PLHA-Pmab: "a mutation of the invariably required Ser-1 residue to Ala {PLHA-Pmab (SEQ ID NO: 20); in short, Pmab(S77A)}" (PLHA[Abu(3R-Me,4-PO3H2)])
- Plk1 binding / precipitation in pull-down, in words (Plk1): abolished the Plk1 binding

Molecule: PLQSpT: "mutation of the His-2 to Gln"; "the PLQSpT mutant" of parent PLHSpT (PLQS[pT])
- increase of the level of Plk2 binding (Plk2; His-2 to Gln mutant versus PLHSpT): 24 fold
- initial heats of interaction (Plk2 PBD): ~-1.1 kcal/mol

Molecule: Pmab(S77A): the S77A mutants of the Pmab- and the F2Pmab-containing peptides (24 and 26, respectively) (PLHA[Abu(3R-Me,4-PO3H2)])
- Plk1 localization at centrosomes and kinetochores (HeLa cells [3]): not
- mitotic arrest / cell cycle effect, in words (HeLa cells [3]): not

Molecule: non-phospho T78 peptide: "the respective non-phospho PLHST (SEQ ID NO: 11) control peptide"
- Plk1 localization at centrosomes and kinetochores (HeLa cells [3]): not
- mitotic arrest / cell cycle effect, in words (HeLa cells [3]): proceeded through the cell cycle normally

Molecule: LHS[pT] [LHSpT]
- fold diminished binding relative to PLHSpT [4]: 7 fold
- fold weaker binding than PLHSpT [5]: 50 fold

B1: PEG-4j* (peptide)
peptide: {PEG}-PLH(Ph‑(CH2)8)S[Abu(3R-Me,4-PO3H2)]
modifications: reading uncertain
notes: T0009: Z = CH2, G = Ph-(CH2)8-, R1 = PEG; also called Cys-PEG-4j* (bead-immobilized form)
- binding result (Flag-Plk3 (K52R)): no binding

Molecule: Ac-PPHS[pT] [PPHSpT]
- fold diminished binding affinity [5]: 20 fold

Molecule: Ac-PLH(Ph‑(CH2)8)S[pT] (also called peptide 4j; Compound 4j) [4j (Biological Example 1)]
- binding result (Flag-Plk3 (K52R)): no binding
